Source: patent US20250092106A1 (University of California, published 2025)

Molecular target: T1, Recombinant soluble integrin αvβ3 (UniProt P06756 31-992; P05106 27-718)
T1 construct: Soluble heterodimer made 'as described [22]'; also called soluble αvβ3; αvβ3 protein
Assay: SPR; soluble αvβ3 immobilized on CM5 chip, HBD as analyte, 1 mM Mn2+

T1 sequence (P06756 31-992, chain 1 of 2): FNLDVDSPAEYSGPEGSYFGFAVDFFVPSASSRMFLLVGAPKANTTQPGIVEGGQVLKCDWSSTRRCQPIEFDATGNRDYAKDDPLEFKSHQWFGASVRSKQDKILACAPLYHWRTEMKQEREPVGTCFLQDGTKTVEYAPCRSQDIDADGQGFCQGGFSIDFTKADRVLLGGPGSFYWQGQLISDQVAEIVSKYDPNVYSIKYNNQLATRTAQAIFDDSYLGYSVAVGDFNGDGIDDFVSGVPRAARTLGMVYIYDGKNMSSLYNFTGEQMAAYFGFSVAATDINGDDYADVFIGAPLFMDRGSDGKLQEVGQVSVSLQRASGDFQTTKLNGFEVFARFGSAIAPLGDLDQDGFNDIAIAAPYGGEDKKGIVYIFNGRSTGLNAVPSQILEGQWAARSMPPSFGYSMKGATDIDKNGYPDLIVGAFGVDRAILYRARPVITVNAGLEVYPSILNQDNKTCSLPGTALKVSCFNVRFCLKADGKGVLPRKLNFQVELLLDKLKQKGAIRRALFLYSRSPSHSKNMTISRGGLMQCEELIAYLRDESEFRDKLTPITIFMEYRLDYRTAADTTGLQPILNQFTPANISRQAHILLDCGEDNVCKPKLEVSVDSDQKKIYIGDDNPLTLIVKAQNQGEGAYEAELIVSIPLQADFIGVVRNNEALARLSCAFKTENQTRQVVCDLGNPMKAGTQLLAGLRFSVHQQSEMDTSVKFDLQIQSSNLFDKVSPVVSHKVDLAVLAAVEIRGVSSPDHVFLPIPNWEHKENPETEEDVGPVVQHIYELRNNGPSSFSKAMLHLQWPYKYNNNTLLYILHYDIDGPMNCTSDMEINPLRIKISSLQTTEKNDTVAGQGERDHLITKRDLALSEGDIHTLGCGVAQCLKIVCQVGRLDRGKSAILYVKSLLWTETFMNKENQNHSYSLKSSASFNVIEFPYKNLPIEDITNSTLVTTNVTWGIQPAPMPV
T1 sequence (P05106 27-718, chain 2 of 2): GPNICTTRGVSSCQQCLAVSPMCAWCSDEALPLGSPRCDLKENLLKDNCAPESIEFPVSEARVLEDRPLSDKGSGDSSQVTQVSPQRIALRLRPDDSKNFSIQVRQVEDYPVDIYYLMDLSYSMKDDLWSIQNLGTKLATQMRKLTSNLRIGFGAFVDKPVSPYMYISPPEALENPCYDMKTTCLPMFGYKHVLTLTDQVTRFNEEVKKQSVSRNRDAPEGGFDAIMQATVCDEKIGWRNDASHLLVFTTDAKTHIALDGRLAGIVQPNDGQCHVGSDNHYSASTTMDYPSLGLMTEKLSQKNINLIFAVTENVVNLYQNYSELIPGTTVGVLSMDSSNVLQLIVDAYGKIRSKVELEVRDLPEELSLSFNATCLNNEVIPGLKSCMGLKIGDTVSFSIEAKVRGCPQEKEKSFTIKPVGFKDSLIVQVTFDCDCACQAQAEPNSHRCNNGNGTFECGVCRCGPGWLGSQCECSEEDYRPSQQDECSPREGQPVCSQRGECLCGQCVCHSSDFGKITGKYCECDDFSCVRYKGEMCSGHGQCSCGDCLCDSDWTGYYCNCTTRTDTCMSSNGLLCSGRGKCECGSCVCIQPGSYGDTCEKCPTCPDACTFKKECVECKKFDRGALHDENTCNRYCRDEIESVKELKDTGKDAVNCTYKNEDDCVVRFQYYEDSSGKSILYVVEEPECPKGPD

B1: VEGF165 heparin-binding domain (HBD, residues 111-165), wild type (ligand)
chain: QALARASGRGGRVARRGAEESGPPHSPSRRGSASRAGPGRASETMNFLLSWVHWS
A Kd of 470 nM was found for B1 in this work.
